Consider four molecules from patent US20070009964A1 (MERCK SERONO, published 2007).

For test [1], the target named is T1, Human OX40R-IgG1 fusion protein (human, UniProt P43489 29-208).
T1 construct: range 1-208; Purified on protein G; also called OX40-IgG1; OX40-IgG; not shown: constant region of human IgG1 (hinge region, CH2 and CH3), amino acids 98-330 of SWISSPROT Acc; No. P01857
T1 sequence (looked up): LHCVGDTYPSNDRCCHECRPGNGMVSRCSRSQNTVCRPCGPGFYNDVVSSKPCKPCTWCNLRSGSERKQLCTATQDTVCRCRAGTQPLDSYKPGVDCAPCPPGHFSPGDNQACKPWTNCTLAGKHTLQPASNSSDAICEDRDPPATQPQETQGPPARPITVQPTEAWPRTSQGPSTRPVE
Nature of the test: Alphascreen saturation binding, 10 nM OX40R-IgG1, non-specific binding determined with 1 mM suramin. For orientation: In Alpha technology, singlet oxygen from a donor bead excites a nearby acceptor bead.

The target in test [2] is T1, Human OX40R-IgG1 fusion protein. The test is described as follows: Alphascreen binding assay, increasing OX40L-CD8 with 10 nM OX40R-IgG1; 10 nM OX40-IgG1.
The target is the same in test [3]. The test is described as follows: Alphascreen binding assay, increasing OX40L-CD8 with 5 nM OX40R-IgG1; 5 nM OX40-IgG1.
Test [4] has the same target. Nature of the test: Alphascreen competition against OX40L-CD8, IC50 transformed by the Cheng-Prusoff equation. As for the experimental part:
(§1) In the standard assay, OX40-IgG₁ and OX40L-CD8 were incubated together for 30 minutes, and then biotinylated anti-CD8 antibody (10 nM) was added. Following another incubation period of 30 minutes, streptavidin donor beads (20 μg/ml) and Protein A acceptor beads (20 μg/ml) were added to each individual well. The plate was counted 1 hour later using a Packard Fusion™ reader (Biosignal Packard) set at a read time of 1 second/well. Owing to the light sensitivity of the donor and acceptor beads, the experiments were carried out under […] and all incubation periods were performed at room temperature. The plate was read at an excitation wavelength of 680 nanometers combined with a shorter emission wavelength of 520-620 nanometers.
(§2) The ability of two known competitors of OX40L-OX40R interactions (untagged recombinant human soluble OX40L and suramin), which are themselves unable to generate an Alphascreen™ signal in this assay in absence of OX40L-CD8, to displace OX40L-CD8 from OX40R-IgG₁ was investigated. […] Increasing concentrations of OX40L (3 μM-0.1 pM) or suramin (1 mM -1 nM) were added to a reaction mixture also containing OX40-IgG₁ (10 nM) and OX40L-CD8 (40 nM). […] These values can be transformed by the Cheng-Prusoff equation (Cheng, Y C and Prusoff, W H, 1973) to Kᵢ values of 2.0 nM for OX40L and 26.3 μM for suramin. […]

For test [5] the target is unchanged. Nature of the test: Alphascreen competition, soluble OX40L displacing OX40L-CD8 (40 nM) from OX40R-IgG1 (10 nM). The procedure: as §1, §2
The target is the same in test [6]. Nature of the test: fluorescence quenching spectroscopy of OX40R-IgG1 intrinsic fluorescence, non-linear regression. As for the experimental part:
(§3) The fluorescence quenching assay was performed as previously described (Golabek A et al., 2000). OX40R-IgG₁ (35 micrograms) was dissolved in 500 microliters of PBS and the fluorescence spectum was recorded at 295-420 nanometers with an excitation wavelength of 290 nanometers using a spectrofluorimeter (Perkin Elmer LS50B) with the slits set at 5 nanometers. Fluorescence spectra of human OX40R-IgG₁ were then recorded in the presence of increasing concentrations (5-1000 nM) of P5 and P5-1 peptides after 15 minutes of equilibration. The fluorescence change at 336 nanometers was plotted versus peptide concentration and the resulting curves were analyzed by nonlinear regression fit with Prism® software (GraphPad).
(§4) The affinity of the peptides identified in Example 1 as inhibitor of OX40L-OX40R interaction was evaluated by fluorescence quenching spectroscopy, a technology allowing such measurements in solution, under native conditions and without beads or other supports. This method is based on monitoring the changes in the intrinsic fluorescence of a protein (OX40R-IgG₁) upon its binding with another protein (P5 or P5-1). […]

The target is the same in test [7]. The test is described as follows: Alphascreen-based competition assay against OX40L-CD8 on OX40R-IgG1; P5 (amino acids 94-124). As for the experimental part: (§5) The soluble components (OX40-IgG₁, OX40L-CD8 and biotinylated anti-CD8 antibody) were mixed at the concentration described before for the competition assays with OX40L and suramin (FIG. 4), together with various concentrations of each peptide in a 5 microliter volume into a first addition step. The streptavidin donor and Protein A acceptor beads were added 30 minutes later. The plates were incubated for 2 hours in the dark, at room temperature and with shaking, before reading at a long excitation wavelength of 680 nm combined with a shorter emission wavelength of 520-620 nanometers, as described in Example 1.

For test [8] the target is unchanged. The test is described as follows: fluorescence quenching spectroscopy of OX40R-IgG1 in solution. The procedure: as §3, §4
The target is the same in test [9]. Nature of the test: Alphascreen-based competition assay against OX40L-CD8 on OX40R-IgG1; P5-1 (amino acids 107-116). As for the experimental part:
as §5

Usually Kd stands for the constant that tells how readily two partners part at equilibrium. As usually defined, the EC50 is the concentration needed to bring the measured effect to its halfway point. Low values mean greater potency, high ones weaker potency. As for “Human OX40L-murine CD8 (from UniProt P01731 28-196) (ligand)”, the Kd in test [1] came out at 20.7 nM. The EC50 in [2] worked out at 7.9 nM; in [3], 7.7 nM.

B1: Recombinant human soluble OX40L (ligand)
chain: QVSHRYPRIQSIKVQFTEYKKEKGFILTSQKEDEIMKVQNNSVIINCDGFYLISLKGYFSQEVNISLHYQKDEEPLFQLKKVRSVNSLMVASLTYKDKVYLNVTTDNTSLDDFHVNGGELILIHQNPGEFCVL
notes: also called untagged recombinant human soluble OX40L; not shown: Glutathione-S-Transferase (GST) fusion partner
By Ki is commonly meant the dissociation constant of the complex between target and ligand, obtained from inhibition or displacement. For orientation: IC50 means the midpoint of a concentration-inhibition curve. High values mean weaker potency in that assay, low ones greater potency in that assay. As to B1, the Ki in test [4] was determined as 2 nM. In [5], this molecule gave an IC50 of 5.9 nM.

B2: Peptide P5 (amino acids 94-124 of human OX40L) (peptide)
peptide: IINCDGFYLISLKGYFSQEVNISLHYQKDEE
notes: Synthetic peptide (Epytop), purity 85-97%
For the molecule B2, the Kd in [6] was 7.96 nM; in test [7], around 10 µM; in [8], around 7.9 nM.

For the molecule GYFSQEVNIS (Synthetic peptide (Epytop)) [Peptide P5-1 (amino acids 107-116 of human OX40L)], the Kd is 24.6 nM in [6], around 62 µM in [9] and around 24.6 nM in test [8].
